This is an account of results in patent US20220205015A1 (NANYANG TECHNOLOGICAL UNIVERSITY, published 2022).

The subject of data set [1] is T1, LL37ARRA (CLLGDFARRAKEKIG).
T1 sequence: CLLGDFARRAKEKIG

Data set [2] concerns the target T2, OmpT (omptin outer membrane protease of Escherichia coli), recombinant, reconstituted in detergent micelles (Escherichia coli, UniProt P09169 21-317).
T2 sequence: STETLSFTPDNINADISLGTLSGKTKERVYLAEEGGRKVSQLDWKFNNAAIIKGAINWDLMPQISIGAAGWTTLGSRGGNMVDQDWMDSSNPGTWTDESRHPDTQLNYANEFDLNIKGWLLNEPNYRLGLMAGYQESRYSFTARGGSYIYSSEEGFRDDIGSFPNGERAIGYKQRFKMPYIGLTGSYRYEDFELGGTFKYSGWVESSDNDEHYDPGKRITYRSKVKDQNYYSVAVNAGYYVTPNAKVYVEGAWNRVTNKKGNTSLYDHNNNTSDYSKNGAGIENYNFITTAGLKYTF
In words: cell-based or functional assay.

For data set [3], the target named is T3, LL37FRRV (CLLGDFFRRVKEKIG).
T3 chain: CLLGDFFRRVKEKIG

Data set [4] addresses T4, LL37YRRA (CLLGDFYRRAKEKIG).
T4 chain: CLLGDFYRRAKEKIG

Data set [5] deals with T5, LL37ARRA (CLLGDFARRAKEKIG).
T5 chain: CLLGDFARRAKEKIG

The target in data set [6] is T6, LL37FRRY (CLLGDFFRRYKEKIG).
T6 chain: CLLGDFFRRYKEKIG

Data set [7] has as its target T7, LL37FRRA (CLLGDFFRRAKEKIG).
T7 chain: CLLGDFFRRAKEKIG

Like-named read-outs stand apart in the source and are kept apart here. Where no end group is shown, it is not given here.

With “PgtE (omptin protease, present on pathogenic Salmonella typhi)”, the “proteolytic activity, measured as the change in PT6 fluorescence with time” value in data set [1] is given as “OmpT exhibits a higher preference for LL37ARRA (SEQ ID NO: 11) than does PgtE”.

As for CLLGDFFRRVKEKIG-NH2 [LL37FRRV (CLLGDFFRRVKEKIG)], in data set [2], the “incubation time with OmpT for an almost complete reduction in PT6 fluorescence” value is over 40 min.

As for CLLGDFFRRAKEKIG [LL37FRRA (CLLGDFFRRAKEKIG)], in data set [2], the “colour of PT6 under UV-A light after incubation with OmpT” value (“colour of PT6 under UV-A light” for short) is at most 10 min and the “incubation time with OmpT for an almost complete reduction in PT6 fluorescence” value is under 20 min.

Regarding CLLGDFYRRAKEKIG [LL37YRRA (CLLGDFYRRAKEKIG)], in data set [2], the “colour of PT6 under UV-A light” value was at most 10 min and the “incubation time with OmpT for an almost complete reduction in PT6 fluorescence” value was under 20 min.

Take CLLGDFFRRYKEKIG [LL37FRRY (CLLGDFFRRYKEKIG)]: in data set [2], the “colour of PT6 under UV-A light” value was at most 10 min and the “incubation time with OmpT for an almost complete reduction in PT6 fluorescence” value was under 20 min.

B1: OmpT (omptin outer membrane protease of Escherichia coli), recombinant, reconstituted in detergent micelles (protein)
chain: STETLSFTPDNINADISLGTLSGKTKERVYLAEEGGRKVSQLDWKFNNAAIIKGAINWDLMPQISIGAAGWTTLGSRGGNMVDQDWMDSSNPGTWTDESRHPDTQLNYANEFDLNIKGWLLNEPNYRLGLMAGYQESRYSFTARGGSYIYSSEEGFRDDIGSFPNGERAIGYKQRFKMPYIGLTGSYRYEDFELGGTFKYSGWVESSDNDEHYDPGKRITYRSKVKDQNYYSVAVNAGYYVTPNAKVYVEGAWNRVTNKKGNTSLYDHNNNTSDYSKNGAGIENYNFITTAGLKYTF
Consider B1, for which, in data set [3], the “SAMDI-MS screen of a peptide array for cleavage by omptin proteases” value is on record as 400 times better then original peptide; the “cleavage, confirmed by MALDI-TOF” value is “it was cleaved at the dibasic site (-R8-R9-) to yield two short fragments of eight and seven residues”. Also, in data set [4], the “rate of cleavage by OmpT” value is recorded as “cleaved by the protease (OmpT) much more rapidly than the LL37FRRY peptide substrate used in Examples 1-5” and the “time to full cleavage by OmpT” value is given as “fully cleaved by OmpT in less than 20 min”. For the same molecule, in data set [5], the “proteolytic activity, measured as the change in PT6 fluorescence with time” value is given as “OmpT exhibits a higher preference for LL37ARRA (SEQ ID NO: 11) than does PgtE”. In addition, the “rate of cleavage by OmpT” value in data set [6] is on record as “cleaved by the protease (OmpT) much more rapidly than the LL37FRRY peptide substrate used in Examples 1-5”. Besides, in data set [7], the “rate of cleavage by OmpT” value was “cleaved by the protease (OmpT) much more rapidly than the LL37FRRY peptide substrate used in Examples 1-5” and the “time to full cleavage by OmpT” value is given as “fully cleaved by OmpT in less than 20 min”.
